The values below come from patent US20220040266A1.

This test concerns the target growth hormone receptor (GHR) on pancreatic cancer cells (human) (UniProt P10912). Briefly: cell-based or functional assay.
Chain of UniProt P10912 (P10912 19-638): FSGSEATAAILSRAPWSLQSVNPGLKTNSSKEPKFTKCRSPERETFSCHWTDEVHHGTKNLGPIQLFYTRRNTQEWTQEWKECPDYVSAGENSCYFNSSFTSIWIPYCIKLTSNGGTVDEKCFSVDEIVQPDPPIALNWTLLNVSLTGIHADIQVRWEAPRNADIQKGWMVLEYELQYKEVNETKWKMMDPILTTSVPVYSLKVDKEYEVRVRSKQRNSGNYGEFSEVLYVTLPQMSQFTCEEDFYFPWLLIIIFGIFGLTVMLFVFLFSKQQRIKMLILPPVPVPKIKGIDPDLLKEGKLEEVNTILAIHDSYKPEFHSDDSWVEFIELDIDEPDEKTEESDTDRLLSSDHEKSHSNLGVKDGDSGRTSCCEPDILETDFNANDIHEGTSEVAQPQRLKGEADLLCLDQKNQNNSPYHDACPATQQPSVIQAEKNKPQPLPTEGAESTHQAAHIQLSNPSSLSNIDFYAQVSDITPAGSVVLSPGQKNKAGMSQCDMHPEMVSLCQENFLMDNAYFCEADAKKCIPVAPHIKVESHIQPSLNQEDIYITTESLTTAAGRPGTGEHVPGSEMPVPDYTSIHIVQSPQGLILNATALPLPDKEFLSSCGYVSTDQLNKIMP

Consider “Compound G (hGHR antagonist hGH-G120K having T142 and H151 changed to cysteine and having both added cysteines conjugated with dPEG-A) (from UniProt P01241 27-217) (ligand)”, for which the drug efflux rate (DiOC2 dye), pancreatic cancer cells, 120 minutes worked out at 2 fold and the percentage of drug retention after 120 minutes, pancreatic cancer cells was 83%.

Substance pegvisomant (SOMAVERT) (ligand) came in with a drug efflux rate (DiOC2 dye), pancreatic cancer cells, 120 minutes of 2 fold and a percentage of drug retention after 120 minutes, pancreatic cancer cells of 83%.
